In IntAct's records for PubMed 15147268:

B1: Suppressor of kinetochore protein 1 (Schizosaccharomyces pombe (strain ATCC 38366 / 972)), Q9Y709 (parent)
chain: MSKIKLISSDNEEFVVDQLIAERSMLIKNMLEDVGEINVPIPLPNVSSNVLRKVLEWCEHHKNDLYSGTEEESDIRLKKSTDIDEWDRKFMAVDQEMLFEIVLASNYLDIKPLLDTGCKTVANMIRGKSPEDIRKTFNIPNDFTPEEEEQIRKENEWAEDR
partner: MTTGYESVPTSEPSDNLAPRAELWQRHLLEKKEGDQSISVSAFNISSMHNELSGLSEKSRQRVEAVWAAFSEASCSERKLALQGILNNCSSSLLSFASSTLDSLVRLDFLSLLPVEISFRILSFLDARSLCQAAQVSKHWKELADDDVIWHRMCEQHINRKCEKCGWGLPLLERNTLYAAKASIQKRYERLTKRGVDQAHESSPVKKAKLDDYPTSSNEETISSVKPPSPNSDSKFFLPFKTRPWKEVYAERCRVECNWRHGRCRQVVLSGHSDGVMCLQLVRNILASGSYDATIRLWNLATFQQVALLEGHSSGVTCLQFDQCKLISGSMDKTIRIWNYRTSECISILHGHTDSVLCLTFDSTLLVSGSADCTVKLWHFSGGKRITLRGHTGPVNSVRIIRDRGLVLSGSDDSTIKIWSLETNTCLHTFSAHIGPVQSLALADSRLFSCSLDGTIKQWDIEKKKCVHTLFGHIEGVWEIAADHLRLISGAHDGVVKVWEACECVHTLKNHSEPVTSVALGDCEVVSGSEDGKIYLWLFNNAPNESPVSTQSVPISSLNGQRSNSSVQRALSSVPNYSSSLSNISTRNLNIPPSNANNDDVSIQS
B2: Suppressor of kinetochore protein 1 (Schizosaccharomyces pombe (strain ATCC 38366 / 972)), Q9Y709 (parent)
chain: B1 chain
partner: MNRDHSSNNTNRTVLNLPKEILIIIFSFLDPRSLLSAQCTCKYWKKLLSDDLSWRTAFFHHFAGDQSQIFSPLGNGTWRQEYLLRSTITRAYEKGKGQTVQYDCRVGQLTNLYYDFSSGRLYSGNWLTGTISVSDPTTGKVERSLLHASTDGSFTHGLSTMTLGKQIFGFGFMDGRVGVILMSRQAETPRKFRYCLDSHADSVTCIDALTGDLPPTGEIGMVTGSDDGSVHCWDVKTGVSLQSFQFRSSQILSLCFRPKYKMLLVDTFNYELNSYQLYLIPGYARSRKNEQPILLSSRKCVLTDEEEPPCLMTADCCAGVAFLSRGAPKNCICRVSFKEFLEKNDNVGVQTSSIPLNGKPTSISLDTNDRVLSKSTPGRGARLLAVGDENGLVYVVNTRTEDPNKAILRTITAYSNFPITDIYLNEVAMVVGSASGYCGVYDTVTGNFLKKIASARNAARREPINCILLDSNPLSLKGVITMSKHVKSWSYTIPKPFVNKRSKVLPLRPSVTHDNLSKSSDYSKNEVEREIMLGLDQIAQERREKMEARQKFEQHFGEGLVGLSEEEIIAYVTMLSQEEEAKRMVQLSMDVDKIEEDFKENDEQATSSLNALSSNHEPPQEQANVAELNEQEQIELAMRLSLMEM
B3: Suppressor of kinetochore protein 1 (Schizosaccharomyces pombe (strain ATCC 38366 / 972)), Q9Y709 (parent)
chain: B1 chain
partner: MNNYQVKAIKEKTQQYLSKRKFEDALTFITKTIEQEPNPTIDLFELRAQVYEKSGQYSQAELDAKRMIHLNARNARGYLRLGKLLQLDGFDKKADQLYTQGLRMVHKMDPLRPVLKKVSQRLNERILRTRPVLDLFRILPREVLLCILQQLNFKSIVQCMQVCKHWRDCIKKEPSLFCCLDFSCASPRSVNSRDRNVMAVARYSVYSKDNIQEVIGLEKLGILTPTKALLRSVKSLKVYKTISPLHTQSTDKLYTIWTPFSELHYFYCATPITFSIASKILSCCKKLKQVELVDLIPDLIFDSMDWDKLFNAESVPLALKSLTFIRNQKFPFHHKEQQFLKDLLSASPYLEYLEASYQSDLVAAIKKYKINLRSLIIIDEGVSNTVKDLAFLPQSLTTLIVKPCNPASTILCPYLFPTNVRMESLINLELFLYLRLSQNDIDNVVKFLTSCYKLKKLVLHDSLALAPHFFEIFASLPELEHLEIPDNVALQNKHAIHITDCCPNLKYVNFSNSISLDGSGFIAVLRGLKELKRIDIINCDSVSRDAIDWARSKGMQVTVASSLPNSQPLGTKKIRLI

Variants of: B1
Conditions: with pof1_schpo pof1, P87053

| Variant | effect of a mutation on the interaction |
| --- | --- |
| I110T | decreasing interaction |

Variants of: B2
Conditions: with pof10_schpo pof10, Q9P7W4

| Variant | effect of a mutation on the interaction |
| --- | --- |
| I110T | decreasing interaction |

Variants of: B3
Conditions: with pof3_schpo pof3, O74991

| Variant | effect of a mutation on the interaction |
| --- | --- |
| I110T | decreasing interaction |
